T1: Pot1pN (Schizosaccharomyces pombe, UniProt O13988 1-185)
T1 sequence: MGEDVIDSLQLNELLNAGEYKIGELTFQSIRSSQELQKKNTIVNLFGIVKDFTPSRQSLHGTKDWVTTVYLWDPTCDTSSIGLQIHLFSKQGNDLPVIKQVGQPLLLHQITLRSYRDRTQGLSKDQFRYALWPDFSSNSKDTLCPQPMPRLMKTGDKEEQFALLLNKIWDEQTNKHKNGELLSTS


Biological target: T1, Pot1pN
Assay: EMSA

Binder | Kd [nM]
GGTCACGGTCACAGGTTACA (ssDNA) [20-mer control (GGTTAC)] | 66 ± 5
GGTCACGGTCACAGGUTACA (ssDNA, 5-hydroxymethyl-2'-deoxyuridine at position 16 (written U)) [5hmU at T3] | 67 ± 5.6

Source: paper PMC4132724
